We go through 83 variants from the RNAGym collection of RNA variant scans (doi:10.1093/molbev/msab373).

B1: Azoarcus group I ribozyme (parent)
chain: GUGCCUUGCGCCGGGAAACCACGCAAGGGAUGGUGUCAAAUUCGGCGAAACCUAAGCGCCCGCCCGGGCGUAUGGCAACGCCGAGCCAAGCUUCGGCGCCUGCGCCGAUGAAGGUGUAGAGACUAGACGGCACCCACCUAAGGCAAACGCUAUGGUGAAGGCAUAGUCCAGGGAGUGGCGAAAGUCACACAAACCGG

This data set covers variants of B1. The data set can be described thus: reverse-splicing fitness (ratio to wild type); higher = more active; in vitro selection; Mg2+ level not given. The procedure, abridged:
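An in vitro group I ribozyme library with randomized positions was T7-transcribed and gel-purified. In triplicate, 10 pmol RNA in EPPS pH 7.5 was reacted with 50 pmoles of a 30-nt RNA substrate for 1 h at 37 °C across several added MgCl2 levels (1–48 mM), then stopped with EDTA. Products were reverse transcribed from a substrate-complementary primer, PCR-amplified and sequenced (HiSeq 4000). Fitness is a variant's read proportion after selection over that before, normalised to wild type.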
In the case of C82A A120C C150G C169G U176A, the reverse-splicing fitness stood at 0.00779.

As for C82A A120G A145C C150G C169G U176G, the reverse-splicing fitness came out at 0.00341. In the case of C82A A120G A145C C150G C169G U176A it was 0.00918; in that of C82A A120G A145C C150G C169G U176C, 0.00676; in that of C82A A120G A145C C150A C169G U176G, 0.00464. In the case of C82A A120G A145C C150A C169G U176A it was 0.0238; in that of C82A A120G A145C C150A C169G U176C, 0.0138; in that of C82A A120G A145U U176C, 0.0146.

On to C82A A120G A145U U176G, for which the reverse-splicing fitness was determined as 0.00426. To C82A A120G A145U U176A belongs 0.0131; to C82A A120C C150G C169U U176C, 0.0113; to C82A A120C C150G C169U U176A, 0.00617. To C82A A120C C150G C169U U176G belongs 0.00629; to C82A A120G A145C U176G, 0.00396. To C82A A120G A145C U176C belongs 0.0111; to C82A A120G A145C U176A, 0.011. C82A A120G C150A C169U U176G: the reverse-splicing fitness stood at 0.00815.

As for C82A A120G C150A C169U U176C, the reverse-splicing fitness amounted to 0.0215.

With C82A A120G C150A C169U U176A, the reverse-splicing fitness was determined as 0.0218. In the case of C82A A120G A145U C150A C169A U176A it was 0.0132; in that of C82A A120G A145U C150A C169A U176G, 0.00386; in that of C82A A120G A145U C150A C169A U176C, 0.0115. In the case of C82A A120G C150G C169G it was 0.00786; in that of C82A A120G C150G C169U, 0.0095. To C82A A120G C150G C169A belongs 0.00866. Consider C82A A120C A145U C150U C169U U176C, for which the reverse-splicing fitness was 0.0137. With C82A A120C A145U C150U C169U U176A, the reverse-splicing fitness was 0.0145. To C82A A120C A145U C150U C169U U176G belongs 0.00474; to C82A A120C C150A C169U U176A, 0.0176.

In the case of C82A A120C C150A C169U U176G, the reverse-splicing fitness is 0.00644.

For C82A A120C C150A C169U U176C, the reverse-splicing fitness is 0.0137.

For C82A A120G A145U C150U C169U, the reverse-splicing fitness came out at 0.0133.

C82A A120G A145U C150U C169G: the reverse-splicing fitness was 0.0173.

As for C82A A120G A145U C150U C169A, the reverse-splicing fitness amounted to 0.013. C82A A120G C150A C169G: the reverse-splicing fitness turned out to be 0.0102. On to C82A A120G C150A C169U, for which the reverse-splicing fitness came out at 0.0102. C82A A120G C150A C169A: the reverse-splicing fitness is 0.011.

Consider C82A A120G A145C C150G C169A, for which the reverse-splicing fitness was found to be 0.00915. In the case of C82A A120G A145C C150G C169G it was 0.00899; in that of C82A A120G A145C C150G C169U, 0.00806.

C82A A120G A145U C150G U176C: the reverse-splicing fitness is 0.00721. In the case of C82A A120G A145U C150G U176A it was 0.00629; in that of C82A A120G A145U C150G U176G, 0.00365; in that of C82A A120G A145U C169G U176A, 0.0118. In the case of C82A A120G A145U C169G U176C, the reverse-splicing fitness was determined as 0.0144. In the case of C82A A120G A145U C169G U176G, the reverse-splicing fitness is 0.00322. In the case of C82A A120G A145C C150A C169A U176A it was 0.0126; in that of C82A A120G A145C C150A C169A U176G, 0.00399.

C82A A120G A145C C150A C169A U176C: the reverse-splicing fitness worked out at 0.00527.

On to C82A A120C A145U C150G U176C, for which the reverse-splicing fitness worked out at 0.0141. In the case of C82A A120C A145U C150G U176G it was 0.00376; in that of C82A A120C A145U C150G U176A, 0.00792. On to C82A A120G A145G C169G U176A, for which the reverse-splicing fitness worked out at 0.0223. To C82A A120G A145G C169G U176C belongs 0.032; to C82A A120G A145G C169G U176G, 0.00359. In the case of C82A A120C C150U C169G U176C it was 0.0201.

As to C82A A120C C150U C169G U176G, the reverse-splicing fitness is 0.00493. On to C82A A120C C150U C169G U176A, for which the reverse-splicing fitness worked out at 0.0152. In the case of C82A A120G A145U C150U C169G U176G it was 0.00454; in that of C82A A120G A145U C150U C169G U176A, 0.0114.

As for C82A A120G A145U C150U C169G U176C, the reverse-splicing fitness came to 0.0154.

Turning to C82A A120G A145G C150A C169U U176G, the reverse-splicing fitness came to 0.00592.

For C82A A120G A145G C150A C169U U176A, the reverse-splicing fitness was found to be 0.0211. To C82A A120G A145G C150A C169U U176C belongs 0.0185; to C82A A120G A145U C150U, 0.0167; to C82A A120G A145U C150A, 0.00826. In the case of C82A A120G A145U C150G it was 0.00781; in that of C82A A120G A145U C150A C169U U176G, 0.00431. In the case of C82A A120G A145U C150A C169U U176C it was 0.0164; in that of C82A A120G A145U C150A C169U U176A, 0.0207; in that of C82A A120C C150A C169A U176G, 0.00801. Consider C82A A120C C150A C169A U176A, for which the reverse-splicing fitness stood at 0.0213.

Consider C82A A120C C150A C169A U176C, for which the reverse-splicing fitness was found to be 0.0227. To C82A A120G A145U C150A C169G belongs 0.00799; to C82A A120G A145U C150A C169U, 0.0066; to C82A A120G A145U C150A C169A, 0.00876. In the case of C82A A120G A145G C150A C169A U176G it was 0.00558.

Regarding C82A A120G A145G C150A C169A U176A, the reverse-splicing fitness was 0.0183. Take C82A A120G A145G C150A C169A U176C: the reverse-splicing fitness is 0.023. To C82A A120C C150U C169A U176C belongs 0.0165. To C82A A120C C150U C169A U176A belongs 0.0201; to C82A A120C C150U C169A U176G, 0.00673.

As to C82A A120C A145U C169G, the reverse-splicing fitness stood at 0.00932.
